This is an account of results in patent US20190218277A1 (Chugai, published 2019).

One may read the Kd as the constant that tells how readily two partners part at equilibrium.

B1: DG_3CH1047-SG1106/3CL-SK1 (antibody)
heavy: QVQLVQSGPDVEKPGASVKVSCKASGYTFTSYYMHWVRQAPGQGLEWMGVINPRGGSRRSAQKFQGRITMTRDTSTSTVYMELSSLRSEDTAVYYCARGGEALFYDSYTTPFDGGSWWFDPWGQGSLVTVSSASTKGPSVFPLAPSSKSTSGGTAALGCLVKDYFPEPVTVSWNSGALTSGVHTFPAVLQSSGLYSLSSVVTVPSSSLGTQTYICNVNHKPSNTKVDKRVEPKSCDKTHTCPPCPAPEAAGGPSVFLFPPKPKDTLMISRTPEVTCVVVDVSHEDPEVKFNWYVDGVEVHNAKTKPREEQYNSTYRVVSVLTVLHQDWLNGKEYKCKVSNAALPAPISKTISKAKGQPREPQVYTLPPSREEMTKNQVSLTCLVKGFYPSDIAVEWESNGQPENNYKTTPPVLDSDGSFFLYSKLTVDKSRWQQGNVFSCSVLHEALHAHYTRKELSLSP
light: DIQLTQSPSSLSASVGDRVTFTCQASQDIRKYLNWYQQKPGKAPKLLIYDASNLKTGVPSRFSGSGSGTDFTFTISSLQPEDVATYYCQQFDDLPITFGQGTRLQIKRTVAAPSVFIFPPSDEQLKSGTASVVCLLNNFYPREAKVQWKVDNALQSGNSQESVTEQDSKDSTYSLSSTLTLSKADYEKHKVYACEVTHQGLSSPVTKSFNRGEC
B2: DG_3CH953-SG182/3CL633-SK1 (antibody, V domains shown)
VH: QVQLVQSGPDVEKPGASVKVSCKASGYTFTSNYIHWVRQAPGQGLEWMGVINPRGGSRRSAQKFQGRITMTRDTSTSTVYMELSSLRSEDTAVYYCARGGRALFYDSYTTPFDGGSWWFDPWGQGSLVTVSS
VL: DIQLTQSPSSLSASVGDRVTITCQASQDIRKYLNWYQQKPGKAPKLLIYDASNLKTGVPSRFSGSGSGTDFTLTISSLQPEDVATYYCQQFDDLPITFGQGTRLQIKR
B3: DG_3CH989-SG182/3CL-SK1 (antibody, V domains shown)
VH: B2 VH with P9A, D10E, E12K, I68V
VL: B2 VL with I21F, L73F
B4: DG_3CH953-SG1095/3CL119-SK1 (antibody)
heavy: B1 heavy with Y32N, M34I, E101R, L443M, A449N, R453Q, E455S
light: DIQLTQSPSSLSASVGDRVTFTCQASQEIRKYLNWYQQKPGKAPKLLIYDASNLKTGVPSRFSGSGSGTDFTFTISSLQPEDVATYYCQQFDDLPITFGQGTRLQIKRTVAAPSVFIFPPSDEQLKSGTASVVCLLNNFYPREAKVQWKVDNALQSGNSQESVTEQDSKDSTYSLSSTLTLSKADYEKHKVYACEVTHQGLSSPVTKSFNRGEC
B5: DG_3CH989-SG182/3CL119-SK1 (antibody, V domains shown)
VH: B2 VH with P9A, D10E, E12K, I68V
VL: B2 VL with I21F, D28E, L73F
B6: DG_3CH992-SG182/3CL633-SK1 (antibody, V domains shown)
VH: B2 VH with P9A, D10E, E12K, N32Y, I68V
VL: B2 VL
B7: DG_3CH953-SG1095/3CL012-SK1 (antibody, human IgG1, kappa, L234A L235A)
heavy: B1 heavy with Y32N, M34I, E101R, L443M, A449N, R453Q, E455S
light: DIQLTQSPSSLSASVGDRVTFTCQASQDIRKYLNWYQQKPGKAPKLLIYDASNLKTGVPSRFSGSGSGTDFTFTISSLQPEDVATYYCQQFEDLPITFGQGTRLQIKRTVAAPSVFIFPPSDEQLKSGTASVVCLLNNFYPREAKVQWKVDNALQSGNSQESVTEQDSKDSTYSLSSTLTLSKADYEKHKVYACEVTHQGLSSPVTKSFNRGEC
B8: DG_3CH989-SG182/3CL668-SK1 (antibody, V domains shown)
VH: B2 VH with P9A, D10E, E12K, I68V
VL: B2 VL with D92E
B9: DG_3CH953-SG1095/3CL-SK1 (antibody, human IgG1, kappa, L234A L235A)
heavy: B1 heavy with Y32N, M34I, E101R, L443M, A449N, R453Q, E455S
light: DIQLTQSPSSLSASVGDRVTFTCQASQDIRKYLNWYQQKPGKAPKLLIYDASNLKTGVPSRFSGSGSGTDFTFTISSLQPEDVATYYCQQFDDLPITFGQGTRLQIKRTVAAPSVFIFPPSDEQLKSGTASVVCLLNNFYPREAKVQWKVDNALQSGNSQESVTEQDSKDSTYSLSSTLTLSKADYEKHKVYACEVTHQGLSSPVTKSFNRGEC
B10: DG_3CH989-SG182/3CL633-SK1 (antibody, V domains shown)
VH: B2 VH with P9A, D10E, E12K, I68V
VL: B2 VL
B11: DG_3CH989-SG182/3CL012-SK1 (antibody, V domains shown)
VH: B2 VH with P9A, D10E, E12K, I68V
VL: B2 VL with I21F, L73F, D92E
B12: DG_3CH1000-SG182/3CL633-SK1 (antibody, V domains shown)
VH: B2 VH with N32Y, I34M
VL: B2 VL
B13: DG_3CH992-SG182/3CL012-SK1 (antibody, V domains shown)
VH: B2 VH with P9A, D10E, E12K, N32Y, I68V
VL: B2 VL with I21F, L73F, D92E
B14: DG_3CH987-SG182/3CL012-SK1 (antibody, V domains shown)
VH: B2 VH with N32Y
VL: B2 VL with I21F, L73F, D92E
B15: DG_3CH987-SG182/3CL-SK1 (antibody, V domains shown)
VH: B2 VH with N32Y
VL: B2 VL with I21F, L73F
B16: DG_3CH1047-SG1095/3CL-SK1 (antibody, human IgG1, kappa, L234A L235A)
heavy: B1 heavy with L443M, A449N, R453Q, E455S
light: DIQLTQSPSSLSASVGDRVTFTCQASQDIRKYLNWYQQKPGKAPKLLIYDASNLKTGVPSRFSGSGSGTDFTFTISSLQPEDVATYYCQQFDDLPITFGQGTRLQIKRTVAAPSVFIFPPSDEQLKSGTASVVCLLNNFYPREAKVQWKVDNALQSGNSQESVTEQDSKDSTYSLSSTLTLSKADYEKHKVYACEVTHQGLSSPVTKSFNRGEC
B17: DG_3CH953-SG182/3CL666-SK1 (antibody, V domains shown)
VH: B2 VH
VL: B2 VL with D28E
B18: DG_3CH989-SG182/3CL666-SK1 (antibody, V domains shown)
VH: B2 VH with P9A, D10E, E12K, I68V
VL: B2 VL with D28E
B19: DG_3CH992-SG182/3CL666-SK1 (antibody, V domains shown)
VH: B2 VH with P9A, D10E, E12K, N32Y, I68V
VL: B2 VL with D28E
B20: DG_3CH992-SG182/3CL-SK1 (antibody, V domains shown)
VH: B2 VH with P9A, D10E, E12K, N32Y, I68V
VL: B2 VL with I21F, L73F
B21: DG_3CH953-SG1106/3CL-SK1 (antibody)
heavy: B1 heavy with Y32N, M34I, E101R
light: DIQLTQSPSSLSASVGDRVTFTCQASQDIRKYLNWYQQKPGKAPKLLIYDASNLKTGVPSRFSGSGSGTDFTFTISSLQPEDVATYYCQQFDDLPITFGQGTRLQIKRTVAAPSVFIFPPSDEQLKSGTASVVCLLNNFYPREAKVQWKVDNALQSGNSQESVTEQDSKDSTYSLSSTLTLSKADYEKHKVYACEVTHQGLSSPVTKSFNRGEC
B22: DG_3CH953-SG182/3CL668-SK1 (antibody, V domains shown)
VH: B2 VH
VL: B2 VL with D92E
B23: DG_3CH987-SG182/3CL119-SK1 (antibody, V domains shown)
VH: B2 VH with N32Y
VL: B2 VL with I21F, D28E, L73F
B24: DG_3CH992-SG182/3CL119-SK1 (antibody, V domains shown)
VH: B2 VH with P9A, D10E, E12K, N32Y, I68V
VL: B2 VL with I21F, D28E, L73F

Where a chain is given by its changes, count along the chain named.

One assay concerns the target T1, Recombinant soluble E protein (0.8E-His) from DENV-1 (DENV-1, UniProt P27909 281-675).
T1 construct: also called DENV-1 E protein; DV1
Assay: not given
Regarding B1, the Kd came to 2120 pM.

As for B2, the equilibrium dissociation constant (Kd) came out at 1650 pM.

As for B3, the dissociation constant Kd is 1840 pM.

With B4, the Kd was 1990 pM.

For the molecule B5, the Kd turned out to be 1530 pM.

As to B6, the dissociation constant (Kd) was 1270 pM.

For the molecule B7, the Kd came out at 1860 pM.

Turning to B8, the Kd was determined as 1500 pM.

Regarding B9, the Kd worked out at 1790 pM.

B10: the Kd amounted to 1540 pM.

As for B11, the equilibrium dissociation constant (Kd) was 1520 pM.

On to B12, for which the Kd came out at 1770 pM.

As for B13, the dissociation constant Kd was determined as 1720 pM.

Turning to B14, the Kd came out at 1420 pM.

In the case of B15, the dissociation constant (Kd) amounted to 1820 pM.

Turning to B16, the equilibrium dissociation constant (Kd) worked out at 2090 pM.

Regarding B17, the Kd was determined as 1690 pM.

For B18, the dissociation constant Kd stood at 1500 pM.

As to B19, the dissociation constant Kd was determined as 1390 pM.

As for B20, the Kd was determined as 2020 pM.

Turning to B21, the dissociation constant Kd amounted to 1850 pM.

Turning to B22, the Kd stood at 1680 pM.

In the case of B23, the equilibrium dissociation constant (Kd) came out at 1530 pM.

Consider B24, for which the Kd was found to be 1870 pM.

In another assay the target is T2, Recombinant soluble E protein (0.8E-His) from DENV-3 (DENV-3, UniProt P27915 281-673).
T2 construct: also called DENV-3 E protein; DV3
Assay: not given
For the molecule B1, the Kd worked out at 4.71 pM.

Take B2: the Kd was 4.96 pM.

Turning to B3, the dissociation constant (Kd) came to 0.448 pM.

Turning to B4, the Kd came out at 7.18 pM.

Take B5: the dissociation constant Kd was determined as 6.83 pM.

For the molecule B6, the equilibrium dissociation constant (Kd) was 2.95 pM.

On to B7, for which the dissociation constant (Kd) was determined as 5.53 pM.

As for B8, the dissociation constant Kd was found to be 3.03 pM.

For the molecule B9, the Kd worked out at 7.03 pM.

Turning to B10, the Kd is 2.37 pM.

Consider B11, for which the dissociation constant (Kd) was 0.0967 pM.

For the molecule B12, the Kd was found to be 4.25 pM.

For B13, the Kd was 1.07 pM.

In the case of B14, the Kd was 2.67 pM.

Take B15: the Kd came to 0.986 pM.

Consider B16, for which the dissociation constant Kd was determined as 2.93 pM.

On to B17, for which the Kd came out at 5.48 pM.

On to B18, for which the Kd was determined as 1.96 pM.

Consider B19, for which the dissociation constant Kd amounted to 0.802 pM.

For B20, the Kd is 4.03 pM.

B21: the Kd came to 7.08 pM.

Consider B22, for which the equilibrium dissociation constant (Kd) was found to be 2.36 pM.

On to B23, for which the equilibrium dissociation constant (Kd) worked out at 0.715 pM.

For the molecule B24, the Kd turned out to be 0.515 pM.

The target in the next assay is T3, Recombinant soluble E protein (0.8E-His) from DENV-2 (DENV-2, UniProt P14340 281-675).
T3 construct: also called DENV-2 E protein; DV2
Nature of the assay: SPR, Biacore T200.
Take B2: the binding result is reported as “binds”.

On to B3, for which the binding result is recorded as “binds”.

Take B4: the binding result is “binds”.

For the molecule B5, the binding result is “binds”.

In the case of B6, the binding result is “binds”.

Consider B7, for which the binding result is on record as “binds”.

B8: the binding result is “binds”.

As for B10, the binding result was “binds”.

Regarding B11, the binding result was “binds”.

Regarding B12, the binding result was “binds”.

B13: the binding result is listed as “binds”.

In the case of B14, the binding result was “binds”.

As to B15, the binding result is “binds”.

Turning to B17, the binding result was “binds”.

In the case of B18, the binding result was “binds”.

B19: the binding result is listed as “binds”.

As to B20, the binding result was “binds”.

On to B22, for which the binding result is listed as “binds”.

On to B23, for which the binding result is recorded as “binds”.

As for B24, the binding result is “binds”.

The next assay concerns the target T4, Recombinant soluble E protein (0.8E-His) from DENV-4 (DENV-4, UniProt P09866 280-674).
T4 construct: also called DENV-4 E protein; DV4
Description: SPR, Biacore T200. For orientation: In SPR one partner is held on a chip, and binding of the other changes the refractive index at the surface.
Regarding B2, the binding result is on record as “binds”.

With B3, the binding result was “binds”.

Regarding B4, the binding result is given as “binds”.

Turning to B5, the binding result is “binds”.

Consider B6, for which the binding result was “binds”.

For B7, the binding result was “binds”.

B8: the binding result is reported as “binds”.

B10: the binding result is listed as “binds”.

B11: the binding result was “binds”.

For the molecule B12, the binding result is listed as “binds”.

As to B13, the binding result is reported as “binds”.

In the case of B14, the binding result is “binds”.

For B15, the binding result is “binds”.

For B17, the binding result is “binds”.

For B18, the binding result is “binds”.

Consider B19, for which the binding result is given as “binds”.

With B20, the binding result is “binds”.

As to B22, the binding result is listed as “binds”.

With B23, the binding result is “binds”.

Consider B24, for which the binding result is “binds”.
